Measurements published in US20190375846A1 (ULTRAHUMAN ONE, published 2019).

Assays:
human GITR-Fc [1] = molecular target: T1, human GITR-Fc (human, UniProt Q9Y5U5 26-161); test: direct titration ELISA on coated human GITR-Fc, IgG1 0.001-1 µg/ml, OD 450 nm
T1 construct: Recombinant GITR-Fc; also called hGITR-Fc; hGITR; not shown: Fc part
T1 sequence (looked up): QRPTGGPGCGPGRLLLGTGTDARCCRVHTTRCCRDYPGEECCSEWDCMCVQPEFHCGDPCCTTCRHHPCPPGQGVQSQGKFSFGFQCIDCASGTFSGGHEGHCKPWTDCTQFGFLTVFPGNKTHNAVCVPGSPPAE
Protocol: (§1) To coat Greiner Bio-One High bind ELISA plates, target proteins were diluted to 1 μg/ml in carbonate buffer and added at 100 μl per well, at 4° C., o/n. Coated plates were washed 3× with PBS pH7.4, blocked with 1% BSA in PBS (380 μl/well) for 1 hr at RT, then washed 3× with PBS-Tween 20 (PBST). GITR antibodies (100 μl/well; diluted in PBST) were then added and then incubated 1 hr at RT. Plates were then washed 3× with PBST and goat anti-human kappa chain-HRP added (100 μl/well) at RT, for 1 hr. Plates were then washed 3× with PBST and twice with PBS before the addition of 100 μl TMB per well. Reactions were stopped by adding 100 μl 2M H₂SO₄/well and OD was read on a plate reader at 450 nm. IgG binding analysis via ELISA on negatively charged biomolecular surfaces were performed as previously described (see Mouquet et al., 2010, Nature 467: 591-595).
(§2) Retention of GITR-binding function in the purified IgG1 proteins was first examined by titration in direct binding ELISA against human GITR-Fc. […] Importantly, the >100-fold loss of binding function in the VH2 IgG family further illustrated that the HCDR1 could not be fully germ-lined a priori to match the native sequence of the human germline HCDR1 found in the framework used for grafting (IGHV3-7).

human GITR-Fc [2] = molecular target: T1, human GITR-Fc; test: direct titration ELISA, coated human GITR-Fc, IgG1
Protocol: as §1, §2

[3] = molecular target: T2, cynomolgus monkey GITR-Fc (cynomolgus monkey (Macaca fascicularis)); test: SPR (Biacore), Fab over GITR-Fc captured on anti-human Fc, 37 C, 1:1 model
T2 construct: also called cyno GITR-Fc; cGITR-Fc
Protocol: (§3) For affinity estimation, anti-human IgG Fc antibody was amine coupled at pH 5 onto three flow cells (Fc 1 to Fc 3) of a Biacore CM5 chip. The level of anti-Fc antibody immobilised onto the chip was approximately 550 RU. Human and cyno GITR-Fc and irrelevant receptor-Fc proteins were then captured onto the anti-Fc antibodies (by injecting over the antibody surface until nearly/completely saturated) in order that 80-100 RU were captured. Fab monomers were then injected over the Fc proteins captured on the chip at 37° C. a flow rate of 50 μl/min for 120 seconds, followed by Biacore running buffer (HBS-EP) being flowed over the chip for 240 seconds at 50 μl/min. The chip was regenerated between cycles using 2×15 second injections of 10 mM Glycine pH 2. The concentrations of Fab samples tested were 400, 200, 100, 50, 25, 12.5, and 6.25 nM. A Biacore running buffer control (0 nM) was also included as a control.
(§4) Monomeric Fab fragments were generated and flowed in the mobile phase on human and cyno GITR-Fc coated biosensor chips, to derive 1:1 binding values.

human GITR-Fc [4] = molecular target: T1, human GITR-Fc; test: as above
Protocol: as §3, §4

human GITR-Fc [5] = molecular target: T1, human GITR-Fc; test: ELISA of IgG1 proteins
Protocol: as §1
To examine the influence of these mutations on immunogenicity and function, five further designer mutants (A6.1 to A6.5, see Table 4 for CDR sequences) were also submitted for Epibase analysis (Table 5). […] Cyno GITR binding was greatly diminished for all of clones A6.2 to A6.5.

B1: VH4/VL1 IgG1 (antibody, V domains shown)
VH: EVQLVQSGAEVKKPGESLKISCKGSGFSLSTSGMGVGWVRQMPGKGLEWLAHIWWDDDKYYSPSFQGQVTISADKSISTAYLQWSSLKASDTAMYYCARTRRYFPFAYWGQGTLVTVSS
VL: EIVMTQSPATLSVSPGERATLSCKASQNVGTNVAWYQQKPGQAPRLLIYSASYRYSGIPARFSGSGSGTEFTLTISSLQSEDFAVYYCQQYNTDPLTFGGGTKVEIK
notes: Human IgG1; also called VH4 family
B1: binds (human GITR-Fc [1]).

B2: VH3/VL1 IgG1 (antibody, V domains shown)
VH: EVQLVESGGGLVQPGGSLRLSCAASGFSLSTSGMGVGWVRQAPGKGLEWLAHIWWDDDKYYVDSVKGRFTISRDNAKNSLYLQMNSLRAEDTAVYYCARTRRYFPFAYWGQGTLVTVSS
VL: EIVMTQSPATLSVSPGERATLSCKASQNVGTNVAWYQQKPGQAPRLLIYSASYRYSGIPARFSGSGSGTEFTLTISSLQSEDFAVYYCQQYNTDPLTFGGGTKVEIK
notes: Human IgG1; also called VH3 family
B2: binds (human GITR-Fc [1]).

B3: VH2/VL1 IgG1 (antibody, V domains shown)
VH: EVQLVESGGGLVQPGGSLRLSCAASGFTFSSYWMSWVRQAPGKGLEWLAHIWWDDDKYYVDSVKGRFTISRDNAKNSLYLQMNSLRAEDTAVYYCARTRRYFPFAYWGQGTLVTVSS
VL: EIVMTQSPATLSVSPGERATLSCKASQNVGTNVAWYQQKPGQAPRLLIYSASYRYSGIPARFSGSGSGTEFTLTISSLQSEDFAVYYCQQYNTDPLTFGGGTKVEIK
notes: Human IgG1; The dash printed in the HCDR1 of VH2 is an alignment gap; also called VH2 family
B3 was tested, and the “fold loss of binding function (against mVH/mVL IgG)” value (“fold loss … (against mVH/mVL IgG)” below) (human GITR-Fc [2]) was over 100 fold.

B4: VH1/VL1 Fab (Fab, V domains shown)
VH: QVTLRESGPALVKPTQTLTLTCTFSGFSLSTSGMGVGWIRQPPGKALEWLAHIWWDDDKYYNPSLKSRLTISKDTSKNQVVLTMTNMDPVDTATYYCARTRRYFPFAYWGQGTLVTVSS
VL: EIVMTQSPATLSVSPGERATLSCKASQNVGTNVAWYQQKPGQAPRLLIYSASYRYSGIPARFSGSGSGTEFTLTISSLQSEDFAVYYCQQYNTDPLTFGGGTKVEIK
notes: also called VH1/VL1 Fab fragment
With B4 the Kd [3] was 270 nM, the koff [3] was 0.0061 s⁻¹ and the kon [3] was 22000 M⁻¹ s⁻¹. It also gave a Kd (human GITR-Fc [4]) of 110 nM, a koff (human GITR-Fc [4]) of 0.0051 s⁻¹ and a kon (human GITR-Fc [4]) of 45000 M⁻¹ s⁻¹.

B5: VH4/VL3 IgG1 (antibody, V domains shown)
VH: EVQLVQSGAEVKKPGESLKISCKGSGFSLSTSGMGVGWVRQMPGKGLEWLAHIWWDDDKYYSPSFQGQVTISADKSISTAYLQWSSLKASDTAMYYCARTRRYFPFAYWGQGTLVTVSS
VL: DIQMTQSPSSLSASVGDRVTITCRASQNVGTNVAWYQQKPGKAPKLLIYSASYRYSGVPSRFSGSGSGTDFTLTISSLQPEDFATYYCQQYNTDPLTFGGGTKVEIK
notes: as for B1
B5: binds (human GITR-Fc [1]).

B6: VH4/VL2 IgG1 (antibody, V domains shown)
VH: EVQLVQSGAEVKKPGESLKISCKGSGFSLSTSGMGVGWVRQMPGKGLEWLAHIWWDDDKYYSPSFQGQVTISADKSISTAYLQWSSLKASDTAMYYCARTRRYFPFAYWGQGTLVTVSS
VL: EIVLTQSPATLSLSPGERATLSCRASQNVGTNVAWYQQKPGQAPRLLIYSASYRYSGIPARFSGSGSGTDFTLTISSLEPEDFAVYYCQQYNTDPLTFGGGTKVEIK
notes: as for B1
B6: binds (human GITR-Fc [1]).

B7: VH1/VL2 IgG1 (antibody, V domains shown)
VH: QVTLRESGPALVKPTQTLTLTCTFSGFSLSTSGMGVGWIRQPPGKALEWLAHIWWDDDKYYNPSLKSRLTISKDTSKNQVVLTMTNMDPVDTATYYCARTRRYFPFAYWGQGTLVTVSS
VL: EIVLTQSPATLSLSPGERATLSCRASQNVGTNVAWYQQKPGQAPRLLIYSASYRYSGIPARFSGSGSGTDFTLTISSLEPEDFAVYYCQQYNTDPLTFGGGTKVEIK
notes: Human IgG1; also called VH1 family
B7: binds (human GITR-Fc [1]).

B8: VH2/VL2 IgG1 (antibody, V domains shown)
VH: EVQLVESGGGLVQPGGSLRLSCAASGFTFSSYWMSWVRQAPGKGLEWLAHIWWDDDKYYVDSVKGRFTISRDNAKNSLYLQMNSLRAEDTAVYYCARTRRYFPFAYWGQGTLVTVSS
VL: EIVLTQSPATLSLSPGERATLSCRASQNVGTNVAWYQQKPGQAPRLLIYSASYRYSGIPARFSGSGSGTDFTLTISSLEPEDFAVYYCQQYNTDPLTFGGGTKVEIK
notes: Human IgG1; also called VH2 family
For B8, the “fold loss … (against mVH/mVL IgG)” value (human GITR-Fc [2]) was over 100 fold.

B9: A6.1 IgG1 (antibody, V domains shown)
VH: EVQLVESGGGLVQPGGSLRLSCAASGFSLSTSGYGVGWVRQAPGKGLEWLAHIWWDDDKYYVDSVKGRFTISRDNAKNSLYLQMNSLRAEDTAVYYCARTRQYFPFAYWGQGTLVTVSS
VL: EIVLTQSPATLSLSPGERATLSCRASQSVGSNLAWYQQKPGQAPRLLIYSASNRYTGIPARFSGSGSGTDFTLTISSLEPEDFAVYYCQQYSTDPLTFGGGTKVEIK
notes: Human IgG1, designer mutant of D-A6; built as m28; also called D-A6.1; Clone A6.1
B9: binds (human GITR-Fc [5]).

B10: VH3/VL3 IgG1 (antibody, V domains shown)
VH: EVQLVESGGGLVQPGGSLRLSCAASGFSLSTSGMGVGWVRQAPGKGLEWLAHIWWDDDKYYVDSVKGRFTISRDNAKNSLYLQMNSLRAEDTAVYYCARTRRYFPFAYWGQGTLVTVSS
VL: DIQMTQSPSSLSASVGDRVTITCRASQNVGTNVAWYQQKPGKAPKLLIYSASYRYSGVPSRFSGSGSGTDFTLTISSLQPEDFATYYCQQYNTDPLTFGGGTKVEIK
notes: as for B2
B10: binds (human GITR-Fc [1]).

B11: MH-1 IgG1 (antibody, V domains shown)
VH: EVQLVESGGGLVQPGGSLRLSCAASGFSLSTSGMGMSWVRQAPGKGLEWVAHIWWDDEKYYVDSVKGRFTISRDNAKNSLYLQMNSLRAEDTAVYYCARTRQYFPFAYWGQGTLVTVSS
VL: EIVLTQSPATLSLSPGERATLSCRASQSVGSNLAWYQQKPGQAPRLLIYSASYRATGIPARFSGSGSGTDFTLTISSLEPEDFAVYYCQQYSTDPLTFGGGTKVEIK
notes: Human IgG1, designer clone; built as m28; also called Clone MH-1
B11: binds (human GITR-Fc [2]).

B12: MH-3 IgG1 (antibody, V domains shown)
VH: EVQLVESGGGLVQPGGSLRLSCAASGFSLSTSGYGMSWVRQAPGKGLEWVAHIWWDDEKYYVDSVKGRFTISRDNAKNSLYLQMNSLRAEDTAVYYCARTRQYFPFAYWGQGTLVTVSS
VL: EIVLTQSPATLSLSPGERATLSCRASQNVGSNLAWYQQKPGQAPRLLIYSASYRATGIPARFSGSGSGTDFTLTISSLEPEDFAVYYCQQYSTDPLTFGGGTKVEIK
notes: Human IgG1, designer clone; built as m28; also called Clone MH-3
B12: binds (human GITR-Fc [2]).

B13: MH-2 IgG1 (antibody, V domains shown)
VH: EVQLVESGGGLVQPGGSLRLSCAASGFSLSTSGYGVSWVRQAPGKGLEWVAHIWWDDEKYYVDSVKGRFTISRDNAKNSLYLQMNSLRAEDTAVYYCARTRQYFPFAYWGQGTLVTVSS
VL: EIVLTQSPATLSLSPGERATLSCRASQSVGSNLAWYQQKPGQAPRLLIYSASYRATGIPARFSGSGSGTDFTLTISSLEPEDFAVYYCQQYSTDPLTFGGGTKVEIK
notes: Human IgG1, designer clone; built as m28; also called Clone MH-2
B13: binds (human GITR-Fc [2]).

B14: MH-4 IgG1 (antibody, V domains shown)
VH: EVQLVESGGGLVQPGGSLRLSCAASGFSLSTSGYGMSWVRQAPGKGLEWVAHIWWDDEKYYVDSVKGRFTISRDNAKNSLYLQMNSLRAEDTAVYYCARTRQYFPFAYWGQGTLVTVSS
VL: EIVLTQSPATLSLSPGERATLSCRASQSVGSNVAWYQQKPGQAPRLLIYSASYRATGIPARFSGSGSGTDFTLTISSLEPEDFAVYYCQQYSTDPLTFGGGTKVEIK
notes: Human IgG1, designer clone; built as m28; also called Clone MH-4
B14: binds (human GITR-Fc [2]).

B15: VH1/VL3 IgG1 (antibody, V domains shown)
VH: QVTLRESGPALVKPTQTLTLTCTFSGFSLSTSGMGVGWIRQPPGKALEWLAHIWWDDDKYYNPSLKSRLTISKDTSKNQVVLTMTNMDPVDTATYYCARTRRYFPFAYWGQGTLVTVSS
VL: DIQMTQSPSSLSASVGDRVTITCRASQNVGTNVAWYQQKPGKAPKLLIYSASYRYSGVPSRFSGSGSGTDFTLTISSLQPEDFATYYCQQYNTDPLTFGGGTKVEIK
notes: as for B7
B15: binds (human GITR-Fc [1]).

B16: VH2/VL3 IgG1 (antibody, V domains shown)
VH: EVQLVESGGGLVQPGGSLRLSCAASGFTFSSYWMSWVRQAPGKGLEWLAHIWWDDDKYYVDSVKGRFTISRDNAKNSLYLQMNSLRAEDTAVYYCARTRRYFPFAYWGQGTLVTVSS
VL: DIQMTQSPSSLSASVGDRVTITCRASQNVGTNVAWYQQKPGKAPKLLIYSASYRYSGVPSRFSGSGSGTDFTLTISSLQPEDFATYYCQQYNTDPLTFGGGTKVEIK
notes: as for B8
For B16, the “fold loss … (against mVH/mVL IgG)” value (human GITR-Fc [2]) was over 100 fold.
